What was measured:
[1] = molecular target: T1, native full length human CB1 receptor (cannabinoid 1 receptor) (human, UniProt P21554 1-472); assay: cell-based or functional assay
[2] = molecular target: T1, native full length human CB1 receptor …; assay: flow cytometry, TRex-CHO full length native human CB1 cells; Exp 2
Protocol: (§1) After being washed with 200 μL of FACS buffer twice, cells were incubated with secondary antibody for 30 minutes on ice. Cells were washed with 200 μL of FACS buffer twice and transferred to BD Falcon 5 mL tube and analyzed by FACS. Data analysis and measurement of binding affinity (KD) was performed using GraphPad Prism software.

[3] = molecular target: T1, native full length human CB1 receptor …; assay: flow cytometry, TRex-CHO full length native human CB1 cells; mean
Protocol: as §1

[4] = molecular target: T2, A139 iCAPS (CB1 with ICL3 native sequence replaced with BRIL) (human, UniProt P21554 99-414); assay: ELISA, purified IgG on A139 CB1 iCAPS
T2 construct: The insert stands inside the chain in place of ICL3
Protocol: (§2) Purified IgG was tested for binding to purified CB1 receptor (CB1 Conformation Antigen Presenting System (iCAPS)) by ELISA. Non-biotinylated antigens (e.g. empty iCAPS) were coated directly on Maxisorp plates. The primary antibodies were purified IgGs with 1:3 serial dilutions, incubated on the plate for 1 hour. After 3 rounds of washing with PBST, secondary antibodies HRP goat anti-mouse IgG (Abmart) or HRP goat anti-human IgG (Sigma), depending on the species of the IgGs were added and incubated for another hour. The plates were washed three times with PBST, then developed with TMB (Biopanda). HCl was added to the plates to stop the reaction. Absorbance at 450 nm was read on Emax precision microplate reader (Molecular Devices).

[5] = molecular target: T3, A138 iCAPS (CB1 with ICL3 native sequence replaced with protein 1 sequence) (human, UniProt P21554 99-414); assay: ELISA, purified IgG on A138 CB1 iCAPS
T3 construct: The insert stands inside the chain in place of ICL3
Protocol: as §2

[6] = molecular target: T1, native full length human CB1 receptor …; assay: cell-based or functional assay; remark: listed apart in the source
[7] = molecular target: T4, mouse CB1 (mouse, UniProt P47746 1-473); assay: flow cytometry on TRex-CHO mouse CB1 cells, lower panel
T4 construct: whole, on cells; also called TRexCHO Mouse CB1
Protocol: (§3) After being washed with 200 μl of FACS buffer twice, cells were incubated with PE conjugated anti-human secondary antibody (Southern Biotech) for 30 minutes on ice. Cells were washed with 200 μl of FACS buffer twice and transferred to BD Falcon 5 ml tube and analyzed by flow cytometry (BD FACScalibur).

[8] = molecular target: T5, human CB2 (human, UniProt P34972 1-360); assay: flow cytometry on TRex-CHO human CB2 cells, middle panel
T5 construct: whole, on cells; also called TRexCHO Human CB2
Protocol: as §3

T2 sequence (P21554 whole entry): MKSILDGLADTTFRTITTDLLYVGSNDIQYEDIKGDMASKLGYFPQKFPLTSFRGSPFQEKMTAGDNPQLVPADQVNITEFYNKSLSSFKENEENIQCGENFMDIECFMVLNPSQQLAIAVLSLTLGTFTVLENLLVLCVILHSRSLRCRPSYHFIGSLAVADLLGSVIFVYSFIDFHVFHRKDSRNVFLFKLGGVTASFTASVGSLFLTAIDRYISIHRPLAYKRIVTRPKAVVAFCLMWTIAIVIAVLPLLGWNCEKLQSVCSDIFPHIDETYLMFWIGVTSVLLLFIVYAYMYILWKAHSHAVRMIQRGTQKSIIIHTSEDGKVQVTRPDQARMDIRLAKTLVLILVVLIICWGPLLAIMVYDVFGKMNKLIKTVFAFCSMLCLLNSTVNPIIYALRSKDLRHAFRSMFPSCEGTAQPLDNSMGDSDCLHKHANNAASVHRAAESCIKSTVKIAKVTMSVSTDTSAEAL
T1 sequence (P21554 whole entry): as above
T3 sequence (P21554 whole entry): as above
T4 sequence (P47746 whole entry): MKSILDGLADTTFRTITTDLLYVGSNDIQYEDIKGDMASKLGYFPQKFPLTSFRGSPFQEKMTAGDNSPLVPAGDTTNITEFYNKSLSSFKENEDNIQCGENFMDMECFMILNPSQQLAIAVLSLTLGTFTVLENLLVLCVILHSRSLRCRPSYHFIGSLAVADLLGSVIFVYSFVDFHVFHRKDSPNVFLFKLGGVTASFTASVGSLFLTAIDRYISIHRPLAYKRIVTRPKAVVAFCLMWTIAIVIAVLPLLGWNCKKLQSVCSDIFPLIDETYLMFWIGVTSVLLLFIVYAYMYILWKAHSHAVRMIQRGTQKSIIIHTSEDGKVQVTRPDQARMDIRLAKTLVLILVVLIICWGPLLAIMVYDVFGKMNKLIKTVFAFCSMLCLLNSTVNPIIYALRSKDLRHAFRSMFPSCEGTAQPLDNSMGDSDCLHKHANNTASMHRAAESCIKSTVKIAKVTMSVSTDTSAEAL
T5 sequence (P34972 whole entry): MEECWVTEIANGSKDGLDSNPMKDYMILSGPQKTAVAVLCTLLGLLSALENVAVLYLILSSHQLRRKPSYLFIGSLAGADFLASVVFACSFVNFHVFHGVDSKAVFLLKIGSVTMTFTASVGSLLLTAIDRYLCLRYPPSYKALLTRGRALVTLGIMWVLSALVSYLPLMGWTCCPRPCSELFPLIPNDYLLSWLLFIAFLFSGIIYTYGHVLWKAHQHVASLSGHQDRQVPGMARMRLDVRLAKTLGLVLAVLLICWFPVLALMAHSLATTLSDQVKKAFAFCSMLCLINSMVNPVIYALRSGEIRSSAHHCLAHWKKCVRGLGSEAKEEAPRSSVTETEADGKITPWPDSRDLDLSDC

Binder | EC50 [4] [nM] | EC50 [5] [nM] | further results
RY-LC-A10 FACS5 (IgG4 S228P) (antibody, V domains shown) VH: QVQLVQSGAEVKKPGSSVKVSCKASGYEFSYYWMNWVRQAPGQGLEWMGQIYPGDGETKYAQKFQGRVTITADKSTSTAYMELSSLRSEDTAVYYCARSHGNYLPYWGQGTLVTVSS VL: EIVLTQSPATLSLSPGERATLSCRASQSVSSRYLHWYQQKPGQAPRLLIYSTSNRASGIPARFSGSGSGTDFTLTISRLEPEDFAVYYCQQYHRSPPTFGQGTKVEIKR |  |  | Exp 1 IC50 (nM), cAMP antagonist assay [1]: 120 nM; Exp 2 IC50 (nM), cAMP antagonist assay [1]: 62.6 nM; Exp 3 IC50 (nM), cAMP antagonist assay [1]: 48.1 nM; Kd [2]: 12.4 nM; Kd [3]: 12.4 nM
PA2R3-P1F1 (chimeric) (antibody, V domains shown) VH: EVQLQQSGAELMKPGASVKISCKATGYTFSSYWIEWVKQRPGHGLEWIGEILPGSGSTNYNEKFKGKATFTADTSSNTAYMQLSSLTSEDSAVYYCARGAWLLSYWYFDVWGAGTSVTVSS VL: DIQMMQSTSSLSASLGDRVTISCSASQGISNYLNWYQQKPDGTVKLLIYYTSSLHSGVPSRFSGSGSGTQFSLKINSLQPEDFGSYYCQHHYGTPYTFGGGTKLELKR | 1.1 | 1.3 | 
PA2LR3-P6G7 (chimeric) (antibody, human IgG1, kappa, V domains shown) VH: EVQLQQSGAELVRPGSSVKISCKASGFAFSNYWMNWVKQRPGQGLEWIGQIYPGDGDTNFNGKFKGRAILTADISSNTAYMQLSSLTSEDSAVYFCARSHGNYFPYWGQGTLVTVSA VL: DIVLTQSPAIMSASLGERVTMTCTASSSVSSSYLHWYQQKPGSSPKLWIYSTSNLASGVPARFSGSGSGTSYSLTISSMEAEDAATYYCHQHHRSPPTFGAGTKLELKR |  |  | EC50, cAMP agonist functional assay [6]: > 300 nM
PA2LR3-P3B10 (chimeric) (antibody, V domains shown) VH: EVQLQQSGAELVRPGSSVKISCKASGYAFSYYWMNWVKQRPGQGLEWIGQIYPGDGDTNYNGKFKGKATLTADKSSSTAYMQLSSLTSEDSAVYFCARSHGNYFPYWGQGTLVTVSA VL: DIVITQSPAIVSASLGERVTMTCTASSSVSSSYLHWYQQKPGSSPKLWIYSTSNLASGVPARFSGSGSGTSYSLTISSMEAEDAATYYCQQWSSYPLTFGAGTKLEIKR | 0.78 | 1.4 | 
PA2LR3-P2D3 (chimeric) (antibody, human IgG1, kappa, V domains shown) VH: EVQLQQSGAELVRPGSSVKISCKASGYAFSYYWMNWVKQRPGQGLEWIGQIYPGDGDTNYNGKFKGKATLTADKSSSTAYMQLSSLTSEDSAVYFCARSHGSYFAYWGQGTLVTVSA VL: DIELAQSPASLAVSLGQRATISCRASESVDSYGNSFMHWYQQKPGQPPKLLIYLASNLESGVPARFSGSGSRADFTLTIDPVEADDAATYYCLQYASSPPTFGAGTKLEIKR | 2.6 | 4.9 | EC50, cAMP agonist functional assay [6]: > 300 nM
PA2LR3-P6B12 (chimeric) (antibody, human IgG1, kappa, V domains shown) VH: EVQLQQSGAELVRPGSSVKISCKASGYAFSYYWMNWVKQRPGQGLEWIGQIYPGDGDTNYNGKFKGKATLTADKSSSTAYMQLSSLTSEDSAVYFCARSHGNYFAYWGQGTLVTVSA VL: QIVLTQSPAIMSASLGERVTMTCTASSSVSSSYLHWYQQKPGSSPKLWIYSTSNLASGVPARFSGSGSGTSYSLTISSMEAEDAATYYCHQYHRSPLAFGAGTKLELKR |  |  | EC50, cAMP assay in the presence of CP55940 [6]: ~1000 nM
PA2LR3-P4C6 (chimeric) (antibody, V domains shown) VH: EVQLQQSGAELVRPGSSVKISCKASGYAFSYYWMNWVKQRPGQGLEWIGQIYPGDGDTNYNGKFKGKATLTADKSSSTAYMQLSSLTSEDSAVYFCARSHGNYFPYWGQGTLVTVSA VL: DIVITQSPAIVSASLGERVTMTCTASSSVSSSYLHWYQQKPGSSPKLWIYSTSNLASGVPARFSGSGSGTSYSLTISSMEAEDAATYYCQQWSSYPLTFGAGTKLEIKR | 0.4 | 0.4 | 
PA2LR3-P4B1 (chimeric) (antibody, human IgG1, kappa, V domains shown) VH: EVQLQQSGAELVRPGSSVKISCKASGFAFSNYWMNWVKQRPGQGLEWIGQIYPGDGDTNFNGKFKGRAILTADISSNTAYMQLSSLTSEDSAVYFCARSHGNYFPYWGQGTLVTVSA VL: QIVLTQSPAIMSASLGERVTMTCTASSSVSSSYLHWYQQKPGSSPKLWIYSTSNLASGVPARFSGSGSGTSYSLTISSMEAEDAATYYCHQYHRSPLTFGAGTKLELKR | 1.41 | 1.28 | EC50, cAMP agonist functional assay [6]: > 300 nM
PA2LR3-P1G6 (chimeric) (antibody, V domains shown) VH: EVQLQQSGAELVRPGSSVKISCKASGYAFSYYWMNWVKQRPGQGLEWIGQIYPGDGDTNYNGKFKGKATLTVDKSSSTAYMQLSSLTSEDSAVYFCARSHGNYFAYWGQGTLVTVSA VL: DIVLSQSPAIMSASLGERVTMTCTASSSVSSSYLHWYQQKPGSSPKLWIYSTSNLASGVPARFSGSGSGTSYSLTISRMEAEDAATYYCQQWSSYPLTFGAGTKLELKR | 35 | 81 | 
PA2LR3-P2E5 (chimeric) (antibody, V domains shown) VH: EVQLQQSGAELVRPGSSVKISCKASGYAFRDYWMNWVKQRPGQGLEWIGQIYPGDGATNYIGKFKGKATLTADKSSSTAYMQLSSLTSEDSAVYFCARSHGNYFPYWGHGTLVTVSA VL: QIVLTQSPAIMSASLGERVTMTCTASSSVSSSYLHWYQQKPGSSPKLWIYSTSNLASGVPARFSGSGSGTSYSLTISSMEAEDAATYYCQQWSSYPLTFGAGTKLELKR | 3.2 | 10 | 
PA2LR3-P4G10 (chimeric) (antibody, V domains shown) VH: EVQLQQFGAELVRPGSSVKISCKASGYAFSYYWMNWVKQRPGQGLEWIGQIYPGDGDTNYNGKFKGKATLTADKSSSTAYMQLSSLTSEDSAVYFCARSHGNYFAYWGQGTLVTVSA VL: DIVLTQSPAIMSASLGERVTMTCTASSSVSSSYLHWYQQKPGSSPKLWIYSTSNLASGVPARFSGSGSGTSYSLTISSMEAEDAATYYCQQWSSNPLTFGAGTKLELKR | 1.35 | 1.19 | 
PA2LR3-P1H4 (chimeric) (antibody, V domains shown) VH: EVQLQQSGAELVRPGSSVKISCKASGYVFGNYWMNWVKQRPGQGLEWIGQIYPGDGDTNYNGKFKGKATLTADKSSSTAYMQLSSLTSEDSAVYFCARSHGNYFPYWGQGTLVTVSA VL: QIVLTQSPAIMSASLGERVTMTCTASSSVSSSYLHWYQQKPGSSPKLWIYSTSNLASGVPARFSGSGSGTSYSLTISSMEAEDAATYYCQQWSSYPLTFGAGTKLELKR | 33.5 | 21 | 
PA2LR3-P2B8 (chimeric) (antibody, V domains shown) VH: EVQLQQSGAELVRPGSSVKISCKASGYAFSYYWMNWVKQRPGQGLEWIGQIYPGDGDTNYNGKFKGKATLTADKSSSTAYMQLSSLTSEDSAVYFCARSHGNYFAYWGQGTLVTVSA VL: DIVMTQSPAIMSASLGERVTMTCTASSSISSSYLHWYQQKPGSSPKLWIYSTSNLASGVPARFSGSGSGTSYSLTISSMEAEDAATYYCHQYHRSPLAFGAGTKLELKR | 1.8 | 6.7 | 
PA2LR3-P3B8 (chimeric) (antibody, V domains shown) VH: EVQLQQSGAELVRPGSSVKISCKASGFAFSNYWMNWVKQRPGQGLEWIGQIYPGDGDTNFNGKFKGRAILTADISSNTAYMQLSSLTSEDSAVYFCARSHGNYFPYWGQGTLVTVSA VL: DIVMTQSPAIMSASLGERVTMTCTASSSVSSSYLHWYQQKPGSSPKLWIYGTSNLASGVPVRFSGSGSGTSYSLTISSMEAEDAATYYCQQWSSYPLTFGAGTKLELKR |  | 71 | 
P1C4-h2-IgG1 (antibody, also called P1C4-H2 (YE); P1C4-H2 (YE)-IgG) heavy: not shown light: EIVLTQSPATLSLSPGERATLSCRASQSVSSSYLHWYQQKPGQAPRLLIYSTSNLASGIPARFSGSGSGTDFTLTISRLEPEDFAVYYCHQYHRSPPTFGQGTKVEIKRTVAAPSVFIFPPSDEQLKSGTASVVCLLNNFYPREAKVQWKVDNALQSGNSQESVTEQDSKDSTYSLSSTLTLSKADYEKHKVYACEVTHQGLSSPVTKSFNRGEC |  |  | binding result [7]: no binding (tested: about 300 nM (last point)); binding result [8]: no binding (tested: about 300 nM (last point))
P1C4-h4-IgG1 (antibody, also called P1C4-H4 (YENG); P1C4-H4 (YENG)-IgG) heavy: not shown light: EIVLTQSPATLSLSPGERATLSCRASQSVSSSYLHWYQQKPGQAPRLLIYSTSNLASGIPARFSGSGSGTDFTLTISRLEPEDFAVYYCHQYHRSPPTFGQGTKVEIKRTVAAPSVFIFPPSDEQLKSGTASVVCLLNNFYPREAKVQWKVDNALQSGNSQESVTEQDSKDSTYSLSSTLTLSKADYEKHKVYACEVTHQGLSSPVTKSFNRGEC |  |  | binding result [7]: no binding (tested: about 300 nM (last point)); binding result [8]: no binding (tested: about 300 nM (last point))
